Data published in patent publication US20230312741A1 (published 2023).
Where a chain is given by its changes, count along the chain named.

T1: human CD73 expressed on the cell surface (human, UniProt P21589 27-549)
T1 sequence: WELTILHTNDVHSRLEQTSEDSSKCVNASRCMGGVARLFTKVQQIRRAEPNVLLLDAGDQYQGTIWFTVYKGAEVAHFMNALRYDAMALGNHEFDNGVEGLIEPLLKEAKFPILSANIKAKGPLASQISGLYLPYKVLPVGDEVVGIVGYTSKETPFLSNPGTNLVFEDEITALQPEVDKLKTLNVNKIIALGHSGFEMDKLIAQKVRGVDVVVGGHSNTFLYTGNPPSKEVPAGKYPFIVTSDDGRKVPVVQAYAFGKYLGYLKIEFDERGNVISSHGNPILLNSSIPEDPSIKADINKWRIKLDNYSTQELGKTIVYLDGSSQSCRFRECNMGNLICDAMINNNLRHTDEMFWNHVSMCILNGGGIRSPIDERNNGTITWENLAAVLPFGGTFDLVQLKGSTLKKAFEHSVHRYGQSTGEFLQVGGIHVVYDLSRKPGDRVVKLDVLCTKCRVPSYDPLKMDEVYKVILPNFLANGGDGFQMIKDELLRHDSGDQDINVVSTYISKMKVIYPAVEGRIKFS

T2: CD73 mutant Y161A/K162A/V170A (human, UniProt P21589 27-549)
T2 construct: As m43; also called mutant 3
T2 chain: T1 sequence with Y135A, K136A, V144A

T3: CD73 mutant L159A/Y161A/K162A/V170A (human, UniProt P21589 27-549)
T3 construct: As m43; also called mutant 16
T3 chain: T1 sequence with L133A, Y135A, K136A, V144A

T4: CD73 mutant K136A/Y161A/K162A/V170A (human, UniProt P21589 27-549)
T4 construct: As m43; also called mutant 13
T4 chain: T1 sequence with K110A, Y135A, K136A, V144A

T5: soluble CD73 protein (ACRO, CD3-H52H7) (human, UniProt P21589 27-547)
T5 sequence (looked up): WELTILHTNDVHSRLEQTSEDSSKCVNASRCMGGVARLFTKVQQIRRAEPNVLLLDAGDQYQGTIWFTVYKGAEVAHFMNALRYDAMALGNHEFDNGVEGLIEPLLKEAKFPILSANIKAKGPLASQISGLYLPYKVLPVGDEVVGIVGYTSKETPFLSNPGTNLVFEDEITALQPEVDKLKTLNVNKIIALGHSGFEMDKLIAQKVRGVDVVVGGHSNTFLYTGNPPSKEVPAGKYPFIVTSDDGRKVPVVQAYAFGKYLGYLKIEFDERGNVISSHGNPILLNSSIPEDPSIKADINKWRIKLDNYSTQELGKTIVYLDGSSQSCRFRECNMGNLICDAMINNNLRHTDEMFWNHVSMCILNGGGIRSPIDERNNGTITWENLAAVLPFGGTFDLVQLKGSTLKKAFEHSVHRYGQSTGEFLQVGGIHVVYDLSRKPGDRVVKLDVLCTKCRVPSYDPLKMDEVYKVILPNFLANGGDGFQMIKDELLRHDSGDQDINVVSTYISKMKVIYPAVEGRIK

B1: ADI-37505 (antibody, human IgG4 S228P, kappa, F234A L235A, V domains shown)
VH: QVQLVESGGGLVQPGGSLRLSCAASGFTFSNYAMTWVRQAPGKGLEWVSAISGRGTATYYADSVKGRFTISRDNSKNTLYLQMNSLRAEDTAVYYCARGGPYGSGSYWDTFDYWGQGTLVTVSS
VL: EIVMTQSPATLSVSPGERATLSCRASQSVSSNLAWYQQKPGQAPRLLIYGASTRATGIPARFSGSGSGTEFTLTISSLQSEDFAVYYCQQYTNHYTFGGGTKVEIKR
B2: ADI-37506 (antibody, human IgG4 S228P, kappa, F234A L235A, V domains shown)
VH: B1 VH with Q1E, V5L, Y32L, T35S, G55A, A57S
VL: B1 VL

Assays:
[1] = target: T1, human CD73 expressed on the cell surface; assay: cell-based or functional assay
[2] = target: T2, CD73 mutant Y161A/K162A/V170A; assay: flow cytometry, GS-CHO cells with CD73 mutant
Protocol: (§1) After washing three more times with PBS, the cells were resuspended in 100 ul PBS. (4) The average fluorescence value was measured in PE channel by flow cytometer. The Log₁₀ of antibody concentration was used as the horizontal coordinate and the average fluorescence value of the PE channel was used as the vertical coordinate to plot a curve, and the EC50 and the peak of the curve were compared.

[3] = target: T3, CD73 mutant L159A/Y161A/K162A/V170A; assay: flow cytometry, GS-CHO cells with CD73 mutant
Protocol: as §1

[4] = target: T4, CD73 mutant K136A/Y161A/K162A/V170A; assay: flow cytometry, GS-CHO cells with CD73 mutant
Protocol: as §1

[5] = target: T5, soluble CD73 protein (ACRO, CD3-H52H7); assay: cell-based or functional assay
[6] = target: T1, human CD73 expressed on the cell surface; assay: cell-based or functional assay; remark: listed apart in the source

Binder | IC50 for inhibiting the enzymatic activity of CD73 (Calu-6 cells) [1] [µg/mL] | binding result [2] | binding result [3] | binding result [4] | IC50, enzymatic activity of soluble CD73 at 1 hour [5] [nM] | IC50, enzymatic activity of CD73 on NCI-H292 cells [6] [nM]
B1 | 0.076 | binds | binds | binds | 0.0718 | 1.47
B2 | 0.073 | binds | binds | binds | 0.0897 | 1.27
